Assay results taken from patent publication US6462178B1, “G protein” (Yong Hou Wong, priority 1999, dated 2002).
Like-named read-outs stand apart in the source and are kept apart here. Each block holds one molecule with its values, some of them ahead of it.

Legend:
[1] = target: T1, δ-opioid receptor (Homo sapiens, UniProt P41143); assay: IP accumulation, δ-opioid receptor coexpressed with Gα subunit in COS-7; assay type: cell-based; conditions: for IP Formation Agonist / IP Formation % Res.: 100 nM DPDPE; for IP Formation % Res.: relative to basal; for stimulation of IP formation: 100 nM
T1 construct: expressed in transfected cells; host or cells: COS-7

[2] = tested on: α2-adrenergic receptor; conditions: 1 μM UK14,304; for IP Formation % Res.: relative to basal
[3] = target: T2, melatonin Mel1a receptor (Homo sapiens, UniProt P48039); assay: IP accumulation, melatonin Mel1a receptor coexpressed with Gα subunit in COS-7; assay type: cell-based; conditions: 1 μM 2-iodomelatonin; for IP Formation % Res.: relative to basal
T2 construct: expressed in transfected cells; host or cells: COS-7

[4] = target: T3, melatonin Mel1b receptor (Homo sapiens, UniProt P49286); assay: IP accumulation, melatonin Mel1b receptor coexpressed with Gα subunit in COS-7; assay type: cell-based; conditions: 1 μM 2-iodomelatonin; for IP Formation % Res.: relative to basal
T3 construct: expressed in transfected cells; host or cells: COS-7
T3 sequence (P49286 1-362): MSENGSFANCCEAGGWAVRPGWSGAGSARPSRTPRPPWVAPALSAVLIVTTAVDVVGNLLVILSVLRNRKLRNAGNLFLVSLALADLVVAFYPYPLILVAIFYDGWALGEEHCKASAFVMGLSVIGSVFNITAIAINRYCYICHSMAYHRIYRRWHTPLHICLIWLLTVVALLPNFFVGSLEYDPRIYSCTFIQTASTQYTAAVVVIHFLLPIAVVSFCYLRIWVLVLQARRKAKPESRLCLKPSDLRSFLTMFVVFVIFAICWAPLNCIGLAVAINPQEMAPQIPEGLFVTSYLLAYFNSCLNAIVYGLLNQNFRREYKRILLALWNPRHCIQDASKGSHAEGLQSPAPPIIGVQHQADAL

[5] = target: T4, melatonin Mel1c receptor (Xenopus laevis, UniProt P49219); assay: IP accumulation, melatonin Mel1c receptor coexpressed with Gα subunit in COS-7; assay type: cell-based; conditions: for IP Formation Agonist / IP Formation % Res.: 1 μM 2-iodomelatonin; for IP Formation % Res.: relative to basal
T4 construct: expressed in transfected cells; host or cells: COS-7
T4 sequence (P49219 1-420): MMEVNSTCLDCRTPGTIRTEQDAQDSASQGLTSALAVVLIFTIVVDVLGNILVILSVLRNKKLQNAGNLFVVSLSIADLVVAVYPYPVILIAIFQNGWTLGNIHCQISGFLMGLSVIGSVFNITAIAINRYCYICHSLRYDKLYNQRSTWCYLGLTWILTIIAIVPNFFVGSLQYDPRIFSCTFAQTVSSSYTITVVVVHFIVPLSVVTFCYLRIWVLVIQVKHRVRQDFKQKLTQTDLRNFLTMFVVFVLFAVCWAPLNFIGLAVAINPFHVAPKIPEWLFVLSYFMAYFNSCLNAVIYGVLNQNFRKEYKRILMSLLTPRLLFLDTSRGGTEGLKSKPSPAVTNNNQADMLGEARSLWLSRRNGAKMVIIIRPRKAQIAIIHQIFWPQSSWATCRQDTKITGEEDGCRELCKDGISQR

[6] = target: δ-opioid receptor
[7] = target: δ-opioid receptor; remark: listed apart in the source
[8] = target: µ-opioid receptor
[9] = target: vasopressin V2 receptor
[10] = target: formyl peptide (fMLP) receptor
[11] = target: complement C5a receptor
[12] = target: somatostatin-1 receptor (SSTR1)
[13] = target: bombesin receptor
[14] = target: melatonin Mel1a receptor
[15] = target: T5, melatonin Mel1b receptor
T5 sequence (P49286 whole entry, species assumed, looked up): T3 sequence (P49286 1-362)

[16] = target: melatonin Mel1c receptor
[17] = target: α2-adrenergic receptor
[18] = target: κ-opioid receptor
[19] = target: T6, complement C5a receptor (Homo sapiens, UniProt P21730); assay: IP accumulation, complement C5a receptor coexpressed with Gα subunit in COS-7; assay type: cell-based; conditions: 100 nM C5a; for IP Formation % Res.: relative to basal
T6 construct: expressed in transfected cells; host or cells: COS-7
T6 sequence (P21730 1-350): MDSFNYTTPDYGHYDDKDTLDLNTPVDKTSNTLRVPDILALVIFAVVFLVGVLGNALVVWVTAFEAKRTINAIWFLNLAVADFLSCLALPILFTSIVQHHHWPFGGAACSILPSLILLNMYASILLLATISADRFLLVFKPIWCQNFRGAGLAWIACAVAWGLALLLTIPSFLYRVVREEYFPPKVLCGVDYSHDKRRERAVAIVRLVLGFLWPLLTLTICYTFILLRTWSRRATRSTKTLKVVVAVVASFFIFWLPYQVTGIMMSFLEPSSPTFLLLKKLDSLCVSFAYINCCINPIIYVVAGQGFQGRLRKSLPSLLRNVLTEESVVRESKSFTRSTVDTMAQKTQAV

[20] = target: adenosine A1 receptor
[21] = target: dopamine D1 receptor
[22] = target: dopamine D2 receptor
[23] = target: β2-adrenergic receptor
[24] = COS-7, receptor + 16z25 chimera
[25] = COS-7, receptor + 16z44 chimera

T1 sequence (P41143 whole entry): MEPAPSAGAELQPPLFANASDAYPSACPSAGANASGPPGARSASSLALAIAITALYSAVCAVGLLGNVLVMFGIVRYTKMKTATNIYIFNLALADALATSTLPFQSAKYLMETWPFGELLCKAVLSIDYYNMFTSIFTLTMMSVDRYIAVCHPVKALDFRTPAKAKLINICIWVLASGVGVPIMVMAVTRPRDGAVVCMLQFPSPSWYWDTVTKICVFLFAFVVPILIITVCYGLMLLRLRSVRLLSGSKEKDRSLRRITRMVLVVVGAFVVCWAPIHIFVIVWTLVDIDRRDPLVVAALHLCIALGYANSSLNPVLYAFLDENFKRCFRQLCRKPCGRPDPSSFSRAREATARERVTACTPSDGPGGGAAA
T2 sequence (P48039 whole entry): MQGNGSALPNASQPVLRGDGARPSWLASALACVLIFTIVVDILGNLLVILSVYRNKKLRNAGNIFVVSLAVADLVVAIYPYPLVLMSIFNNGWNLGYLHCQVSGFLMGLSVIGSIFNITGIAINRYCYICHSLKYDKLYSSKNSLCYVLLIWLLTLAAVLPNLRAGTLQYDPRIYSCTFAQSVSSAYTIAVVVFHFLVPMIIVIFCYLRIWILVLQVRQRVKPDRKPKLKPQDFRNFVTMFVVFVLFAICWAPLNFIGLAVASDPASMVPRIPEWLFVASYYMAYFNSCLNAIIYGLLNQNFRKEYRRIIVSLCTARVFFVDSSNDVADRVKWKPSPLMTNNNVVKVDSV
dopamine D2 receptor, sequence (P14416 whole entry): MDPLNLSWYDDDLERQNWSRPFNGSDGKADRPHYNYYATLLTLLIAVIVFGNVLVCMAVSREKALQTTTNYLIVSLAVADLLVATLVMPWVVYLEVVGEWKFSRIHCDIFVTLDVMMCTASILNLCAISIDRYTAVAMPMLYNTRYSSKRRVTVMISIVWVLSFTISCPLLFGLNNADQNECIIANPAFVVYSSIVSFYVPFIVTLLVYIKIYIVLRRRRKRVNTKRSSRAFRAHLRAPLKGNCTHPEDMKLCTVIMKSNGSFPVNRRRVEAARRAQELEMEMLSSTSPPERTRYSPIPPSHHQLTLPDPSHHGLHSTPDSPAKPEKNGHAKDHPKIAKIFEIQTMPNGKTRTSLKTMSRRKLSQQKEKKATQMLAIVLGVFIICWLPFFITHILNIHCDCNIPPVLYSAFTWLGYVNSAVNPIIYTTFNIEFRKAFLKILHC

Molecule: [D-Pen^2,D-Pen^5]enkephalin [DPDPE]
IP Formation Agonist [1, 24]: 66.8 ± 7.1
IP Formation % Res. [1, 24]: 287%
IP Formation Agonist [1, 25]: 121.8 ± 9.1
IP Formation % Res. [1, 25]: 548%
IP Formation Agonist ([1]; COS-7, receptor + Gα16): 42.2 ± 6.1
IP Formation % Res. ([1]; COS-7, receptor + Gα16): 417%
maximal stimulation, 16z44-mediated relative to Gα16-mediated response ([1]; COS-7, δ-opioid receptor): twice that of the Gα16-mediated response
DPDPE response (IP formation) ([1]; COS-7, δ-opioid receptor + 16z3, 16z6 or 16z66): failed to mediate the DPDPE response
IP formation ([1]; COS-7, δ-opioid receptor + 30z16): doubled the IP formation
response to agonist-activated δ-opioid receptor (IP formation) ([1]; COS-7, δ-opioid receptor + 30z16z66): unable to respond
stimulation of IP formation ([1]; COS-7 coexpressing Gα16 and δ-opioid receptor): 3 fold
stimulation of IP formation ([1]; COS-7 coexpressing δ-opioid receptor with either 16z25 or 16z44): 3-4.5 folds
formation of IP ([1]; COS-7 cotransfected with δ-opioid receptor and Gαz, agonist treatment): failed to evoke formation of IP

Molecule: Brc1c(NC2=NCCN2)ccc2nccnc12 [UK14,304]
IP Formation Agonist [2, 24]: 116.1 ± 8.8
IP Formation % Res. [2, 24]: 365%
IP Formation Agonist [2, 25]: 126.7 ± 1.5
IP Formation % Res. [2, 25]: 297%
IP Formation Agonist ([2]; COS-7, receptor + Gα16): 107.4 ± 9.6
IP Formation % Res. ([2]; COS-7, receptor + Gα16): 730%

Molecule: COc1ccc2[nH]c(I)c(CCNC(C)=O)c2c1 [2-iodomelatonin]
IP Formation Agonist [3, 24]: 80.4 ± 4.0
IP Formation % Res. [3, 24]: 150%
IP Formation Agonist [3, 25]: 91.9 ± 8.8
IP Formation % Res. [3, 25]: 171%
IP Formation Agonist ([3]; COS-7, receptor + Gα16): 45.6 ± 6.0
IP Formation % Res. ([3]; COS-7, receptor + Gα16): 296%
IP Formation Agonist [4, 24]: 108.3 ± 3.6
IP Formation % Res. [4, 24]: 155%
IP Formation Agonist [4, 25]: 113.2 ± 7.3
IP Formation % Res. [4, 25]: 177%
IP Formation Agonist ([4]; COS-7, receptor + Gα16): 31.7 ± 2.3
IP Formation % Res. ([4]; COS-7, receptor + Gα16): 195%
EC50 ([5]; COS-7, Mel1c + 16z44, read-out: EC50, formation of IP): ~0.4 nM
stimulation of PLC activity ([5]; COS-7, Mel1c + Gα16, 0.03-100 nM): did not stimulate PLC activity
IP Formation Agonist [5, 24]: 42.5 ± 6.7
IP Formation % Res. [5, 24]: 270%
IP Formation Agonist [5, 25]: 86.8 ± 7.0
IP Formation % Res. [5, 25]: 307%
IP Formation % Res. ([5]; COS-7, receptor + Gα16): 115%

Molecule: vasopressin (peptide)
IP formation with agonist (cells coexpressing 16z44) (IP formation (unit not given)) [9]: 59.8

Molecule: C5a (ligand)
IP formation with agonist (cells coexpressing 16z44) (IP formation (unit not given)) [11]: 87.4

Molecule: somatostatin (peptide)
EC50 for IP formation (cells coexpressing 16z44) [12]: 3 nM
EC50 for IP formation (cells coexpressing Gα16) [12]: 20 nM

Molecule: bombesin (peptide)
IP formation with agonist (control cells without 16z44) (IP formation (unit not given)) [13]: 149

B1: Gα16 (protein)
chain: MARSLTWRCCPWCLTEDEKAAARVDQEINRILLEQKKQDRGELKLLLLGPGESGKSTFIKQMRIIHGAGYSEEERKGFRPLVYQNIFVSMRAMIEAMERLQIPFSRPESKHHASLVMSQDPYKVTTFEKRYAAAMQWLWRDAGIRACYERRREFHLLDSAVYYLSHLERITEEGYVPTAQDVLRSRMPTTGINEYCFSVQKTNLRIVDVGGQKSERKKWIHCFENVIALIYLASLSEYDQCLEENNQENRMKESLALFGTILELPWFKSTSVILFLNKTDILEEKIPTSHLATYFPSFQGPKQDAEAAKRFILDMYTRMYTGCVDGPEGSKKGARSRRLFSHYTCATDTQNIRKVFKDVRDSVLARYLDEINLL
IP formation (PLC stimulation), % Res. [11]: 608 % Res.
IP formation (PLC stimulation), % Res. [10]: 566 % Res.
IP formation (PLC stimulation), % Res. [14]: 296 % Res.
IP formation (PLC stimulation), % Res. [15]: 195 % Res.
IP formation (PLC stimulation), % Res. [16]: 115 % Res.
IP formation (PLC stimulation), % Res. [9]: 332 % Res.
IP formation (PLC stimulation), % Res. [8]: 134 % Res.
IP formation (PLC stimulation), % Res. [17]: 730 % Res.
IP formation (PLC stimulation), % Res. [6]: 417 % Res.
IP formation (PLC stimulation), % Res. [18]: 327 % Res.

The next lines start with the values.

IP formation with agonist (cells coexpressing 16z44) (IP formation (unit not given)) [6]: 122
EC50 for IP formation (cells coexpressing 16z44) [7]: 10 nM
EC50 for IP formation (cells coexpressing Gα16) [7]: 40 nM
Molecule: [D-Pen^2,D-Pen^5]enkephalin (peptide)

IP formation with agonist (cells coexpressing 16z44) (IP formation (unit not given)) [8]: 68.5
Molecule: [D-Ala^2,N-Me-Phe^4,Gly^5-ol]enkephalin (peptide)

IP formation with agonist (cells coexpressing 16z44) (IP formation (unit not given)) [10]: 91.6
Molecule: N-formylmethionyl-leucyl-phenylalanine (peptide)

IP Formation Agonist [19, 24]: 79.6 ± 6.5
IP Formation % Res. [19, 24]: 432%
IP Formation Agonist [19, 25]: 87.4 ± 7.2
IP Formation % Res. [19, 25]: 457%
IP Formation Agonist ([19]; COS-7, receptor + Gα16): 67.5 ± 8.1
IP Formation % Res. ([19]; COS-7, receptor + Gα16): 608%
B2: C5a: complement C5a, agonist of the C5a receptor (protein, UniProt P01031 678-751, looked up)
C5a anaphylatoxin: TLQKKIEEIAAKYKHSVVKKCCYDGACVNNDETCEQRAARISLGPRCIKAFTECCVVASQLRANISHKDMQLGR
modifications: C5a anaphylatoxin
notes: complement C5a, agonist of the C5a receptor

IP formation (PLC stimulation), % Res. [20]: 197 % Res.
IP formation (PLC stimulation), % Res. [11]: 432 % Res.
IP formation (PLC stimulation), % Res. [21]: 214 % Res.
IP formation (PLC stimulation), % Res. [22]: 324 % Res.
IP formation (PLC stimulation), % Res. [10]: 352 % Res.
IP formation (PLC stimulation), % Res. [14]: 150 % Res.
IP formation (PLC stimulation), % Res. [15]: 155 % Res.
IP formation (PLC stimulation), % Res. [16]: 270 % Res.
IP formation (PLC stimulation), % Res. [9]: 291 % Res.
IP formation (PLC stimulation), % Res. [8]: 224 % Res.
IP formation (PLC stimulation), % Res. [17]: 365 % Res.
IP formation (PLC stimulation), % Res. [23]: 360 % Res.
IP formation (PLC stimulation), % Res. [6]: 287 % Res.
IP formation (PLC stimulation), % Res. [18]: 188 % Res.
B3: 16z25 chimera (protein)
chain: MARSLTWRCCPWCLTEDEKAAARVDQEINRILLEQKKQDRGELKLLLLGPGESGKSTFIKQMRIIHGAGYSEEERKGFRPLVYQNIFVSMRAMIEAMERLQIPFSRPESKHHASLVMSQDPYKVTTFEKRYAAAMQWLWRDAGIRACYERRREFHLLDSAVYYLSHLERITEEGYVPTAQDVLRSRMPTTGINEYCFSVQKTNLRIVDVGGQKSERKKWIHCFENVIALIYLASLSEYDQCLEENNQENRMKESLALFGTILELPWFKSTSVILFLNKTDILEEKIPTSHLATYFPSFQGPKQDAEAAKRFILDMYTRMYTGCVDGPEGSKKGARSRRLFSHYTCATDTSNIQFVFDAVTDVIIQNNLKYIGLC
